Laboratory results as given in EP4566619A1 (AvenCell Therapeutics Inc., dated 2025).
Substitutions are numbered along the chain they refer to.

T1: CD20 (UniProt P11836 1-297)
T1 construct: whole, on cells; also called CD20 on OCI-AML3-CD20 cells; Oci-AML-CD20
T1 sequence (looked up): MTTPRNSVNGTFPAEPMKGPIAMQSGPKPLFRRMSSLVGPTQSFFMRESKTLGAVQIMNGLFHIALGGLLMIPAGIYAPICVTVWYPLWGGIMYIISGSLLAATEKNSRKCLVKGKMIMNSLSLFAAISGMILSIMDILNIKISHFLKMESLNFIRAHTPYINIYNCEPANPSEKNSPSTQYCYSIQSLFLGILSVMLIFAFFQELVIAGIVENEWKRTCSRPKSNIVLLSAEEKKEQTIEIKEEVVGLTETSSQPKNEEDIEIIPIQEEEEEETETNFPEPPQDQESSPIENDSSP

T2: CD19 (UniProt P15391 20-556)
T2 construct: whole, on cells; also called CD19 on OCI-AML3-CD19 cells; Oci-AML-CD19
T2 sequence (looked up): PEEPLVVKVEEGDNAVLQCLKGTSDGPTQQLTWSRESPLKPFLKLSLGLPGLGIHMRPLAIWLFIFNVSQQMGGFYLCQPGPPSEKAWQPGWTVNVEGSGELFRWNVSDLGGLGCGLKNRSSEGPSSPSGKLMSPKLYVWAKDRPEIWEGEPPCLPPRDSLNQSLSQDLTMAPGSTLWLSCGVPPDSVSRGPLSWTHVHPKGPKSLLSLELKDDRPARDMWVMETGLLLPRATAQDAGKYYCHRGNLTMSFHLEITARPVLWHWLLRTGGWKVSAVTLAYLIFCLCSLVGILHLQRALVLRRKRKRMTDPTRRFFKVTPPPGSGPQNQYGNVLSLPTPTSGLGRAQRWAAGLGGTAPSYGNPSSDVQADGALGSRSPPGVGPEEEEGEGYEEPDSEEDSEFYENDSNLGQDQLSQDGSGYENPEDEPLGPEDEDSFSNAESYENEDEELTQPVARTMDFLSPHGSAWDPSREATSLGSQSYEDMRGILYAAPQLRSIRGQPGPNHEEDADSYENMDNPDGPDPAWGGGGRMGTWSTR

B1: R-TM-19/20_2 (other)
chain 1: not shown
chain 2: GQVQLVQSGAEVKKPGASVKVSCKASGYTFTHYYIYWVRQAPGQGLEWMGGVNPSNGGTHFNEKFKSRVTMTRDTSISTAYMELSRLRSDDTAVYYCARSEYDYGLGFAYWGQGTLVTVSSASTKGPSVFPLAPSSKSTSGGTAALGCLVKDYFPEPVTVSWNSGALTSGVHTFPAVLQSSGLYSLSSVVTVPSSSLGTQTYICNVNHKPSNTKVDKKVEPKSCDKTHTCPPCPAPPVAGPSVFLFPPKPKDTLMISRTPEVTCVVVDVSHEDPEVKFNWYVDGVEVHNAKTKPREEQYNSTYRVVSVLTVLHQDWLNGKEYKCKVSNKGLPSSIEKTISKAKGQPREPQVYTLPPSRDELTKNQVSLWCLVKGFYPSDIAVEWESNGQPENNYKTTPPVLDSDGSFFLYSKLTVDKSRWQQGNVFSCSVMHEALHNHYTQKSLSLSPGK
chain 3: GQVQLVESGGGLVQPGGSLRLSCAASGRTFSNYNMGWFRQAPGQGLEFVAAIDWSGGSPYYADSVKGRFTISRDNSKNTLYLQMNSLRAEDTAVYYCAAPLSYGSTWLADYWGQGTLVTVSSEPKSCDKTHTCPPCPAPPVAGPSVFLFPPKPKDTLMISRTPEVTCVVVDVSHEDPEVKFNWYVDGVEVHNAKTKPREEQYNSTYRVVSVLTVLHQDWLNGKEYKCKVSNKGLPSSIEKTISKAKGQPREPQVYTLPPSRDELTKNQVSLSCAVKGFYPSDIAVEWESNGQPENNYKTTPPVLDSDGSFFLVSKLTVDKSRWQQGNVFSCSVMHEALHNHYTQKSLSLSPGK
notes: also called R-TM 19/20_02
B2: R-TM-19/20_3 (other)
chain 1: not shown
chain 2: B1 chain 2
chain 3: B1 chain 3 with D63A, K66R
notes: Three-chain CD19/CD20 targeting module; also called R-TM 19/20_03
B3: R-TM-19/20_8 (other)
chain 1: not shown
chain 2: B1 chain 2
chain 3: GQVQLVESGGGLVQPGGSLRLSCAASGRTFSNYNMGWFRQAPGQGLEFVAAIDWSGGSPYYADSVKGRFTISRDNSKNTLYLQMNSLRAEDTAVYYCAAPLSYGSTWLADYWGQGTLVTVSSGGGGSGGGGSGGGGSEVQLVESGGGLVQPGGSLRLSCAASGFSFSDFWMSWVRQAPGKGLEWVATISQAGSEKDYVDSVKGRFTISRDNAKKSLYLQMNSLRAEDTAVYYCASGVYSFDYRGQGTLVTVSSEPKSCDKTHTCPPCPAPPVAGPSVFLFPPKPKDTLMISRTPEVTCVVVDVSHEDPEVKFNWYVDGVEVHNAKTKPREEQYNSTYRVVSVLTVLHQDWLNGKEYKCKVSNKGLPSSIEKTISKAKGQPREPQVYTLPPSRDELTKNQVSLSCAVKGFYPSDIAVEWESNGQPENNYKTTPPVLDSDGSFFLVSKLTVDKSRWQQGNVFSCSVMHEALHNHYTQKSLSLSPGK
notes: Three-chain CD19/CD20 targeting module; also called R-TM 19/20_08
B4: R-TM-19/20_11 (other)
chain 1: not shown
chain 2: B1 chain 2
chain 3: EVQLVESGGGLVQPGGSLRLSCAASGFSFSDFWMSWVRQAPGKGLEWVATISQAGSEKDYVDSVKGRFTISRDNAKKSLYLQMNSLRAEDTAVYYCASGVYSFDYRGQGTLVTVSSEPKSCDKTHTCPPCPAPPVAGPSVFLFPPKPKDTLMISRTPEVTCVVVDVSHEDPEVKFNWYVDGVEVHNAKTKPREEQYNSTYRVVSVLTVLHQDWLNGKEYKCKVSNKGLPSSIEKTISKAKGQPREPQVYTLPPSRDELTKNQVSLSCAVKGFYPSDIAVEWESNGQPENNYKTTPPVLDSDGSFFLVSKLTVDKSRWQQGNVFSCSVMHEALHNHYTQKSLSLSPGKGGGGSGGGGSGGGGSQVQLVESGGGLVQPGGSLRLSCAASGRTFSNYNMGWFRQAPGQGLEFVAAIDWSGGSPYYADSVKGRFTISRDNSKNTLYLQMNSLRAEDTAVYYCAAPLSYGSTWLADYWGQGTLVTVSS
notes: Three-chain CD19/CD20 targeting module
B5: R-TM-19/20_15 (other)
chain 1: not shown
chain 2: B1 chain 2
chain 3: GQVQLVESGGGLVQPGGSLRLSCAASGRTFSNYNMGWFRQAPGQGLEFVAAIDWSGGSPYYADSVKGRFTISRDNSKNTLYLQMNSLRAEDTAVYYCAAPLSYGSTWLADYWGQGTLVTVSSGGGGSGGGGSQVQLVESGGGLVQPGGSLRLSCAASGRTFSNYNMGWFRQAPGQGLEFVAAIDWSGGSPYYADSVKGRFTISRDNSKNTLYLQMNSLRAEDTAVYYCAAPLSYGSTWLADYWGQGTLVTVSSEPKSCDKTHTCPPCPAPPVAGPSVFLFPPKPKDTLMISRTPEVTCVVVDVSHEDPEVKFNWYVDGVEVHNAKTKPREEQYNSTYRVVSVLTVLHQDWLNGKEYKCKVSNKGLPSSIEKTISKAKGQPREPQVYTLPPSRDELTKNQVSLSCAVKGFYPSDIAVEWESNGQPENNYKTTPPVLDSDGSFFLVSKLTVDKSRWQQGNVFSCSVMHEALHNHYTQKSLSLSPGK
notes: as for B4
B6: R-TM-19/20_21 (other)
chain 1: not shown
chain 2: B1 chain 2
chain 3: B1 chain 3
notes: as for B4
B7: R-TM-19/20_23 (other)
chain 1: not shown
chain 2: B1 chain 2
chain 3: B1 chain 3 with D63A, K66R
notes: as for B4
B8: R-TM-19/20_5 (other)
chain 1: not shown
chain 2: B1 chain 2
chain 3: B5 chain 3
notes: Three-chain CD19/CD20 targeting module; also called R-TM 19/20_05

Legend:
CD20 [1] = target: T1, CD20; test: cellular binding assay, flow cytometry (gMFI) on OCI-AML3-CD20 cells
CD19 [2] = target: T2, CD19; test: cellular binding assay, flow cytometry (gMFI) on OCI-AML3-CD19 cells
CD19 [3] = target: T2, CD19; test: cell-based or functional assay
CD20 [4] = target: T1, CD20; test: cell-based or functional assay

Binder | EC50 (CD20 [1]) [nM] | EC50 (CD19 [2]) [nM] | CD19 killing EC50 [pM] (CD19 [3]) | CD20 killing EC50 [pM] (CD20 [4])
B1 | 43.6 | 18.4 | 3.8 | 7.2
B2 | 29.2 | 19 | 7.9 | 4.3
B3 | 37 | 14.8 | 7.1 | 14.2
B4 | 62 | 5.2 | 3.8 | 17.9
B5 | 45.5 | 3.7 | 1.2 | 10.7
B6 | 53.8 | 2.2 | 1.4 | 12.6
B7 | 23 | 3.4 | 1 | 2.1
B8 | 24.1 | 14.7 | 6.2 | 9.8
